Patent US20140199327A1, “METHODS OF PROMOTING DIFFERENTIATION” (Genentech, Inc., priority 2011, published 2014)

Experiments:
Test in all cases: Flag immunoprecipitation of DUBs from 293T cells cotransfected with ID2, MG-132 treated (FIG. 2B)
[1] = target: SENP3-Flag (human SENP3 with C-terminal Flag epitope) (human, UniProt Q9H4L4 1-574, limits assumed)
Method: (§1) FIG. 2. […] (A) Western blot (WB) analysis of 293T transfected with Flag-tagged deubiquitinases (DUBs) or an empty vector (−). Where indicated, cells were treated with […] MG-132 for 4 hr. (B) Flag-tagged DUBs were immunoprecipitated (IP) from 293T cells cotransfected with ID2 and treated with […] MG-132 for 6 hr.

[2] = target: T1, USP37-Flag (human USP37 with C-terminal Flag epitope) (human, UniProt Q86T82 1-979, limits assumed)
T1 sequence (looked up): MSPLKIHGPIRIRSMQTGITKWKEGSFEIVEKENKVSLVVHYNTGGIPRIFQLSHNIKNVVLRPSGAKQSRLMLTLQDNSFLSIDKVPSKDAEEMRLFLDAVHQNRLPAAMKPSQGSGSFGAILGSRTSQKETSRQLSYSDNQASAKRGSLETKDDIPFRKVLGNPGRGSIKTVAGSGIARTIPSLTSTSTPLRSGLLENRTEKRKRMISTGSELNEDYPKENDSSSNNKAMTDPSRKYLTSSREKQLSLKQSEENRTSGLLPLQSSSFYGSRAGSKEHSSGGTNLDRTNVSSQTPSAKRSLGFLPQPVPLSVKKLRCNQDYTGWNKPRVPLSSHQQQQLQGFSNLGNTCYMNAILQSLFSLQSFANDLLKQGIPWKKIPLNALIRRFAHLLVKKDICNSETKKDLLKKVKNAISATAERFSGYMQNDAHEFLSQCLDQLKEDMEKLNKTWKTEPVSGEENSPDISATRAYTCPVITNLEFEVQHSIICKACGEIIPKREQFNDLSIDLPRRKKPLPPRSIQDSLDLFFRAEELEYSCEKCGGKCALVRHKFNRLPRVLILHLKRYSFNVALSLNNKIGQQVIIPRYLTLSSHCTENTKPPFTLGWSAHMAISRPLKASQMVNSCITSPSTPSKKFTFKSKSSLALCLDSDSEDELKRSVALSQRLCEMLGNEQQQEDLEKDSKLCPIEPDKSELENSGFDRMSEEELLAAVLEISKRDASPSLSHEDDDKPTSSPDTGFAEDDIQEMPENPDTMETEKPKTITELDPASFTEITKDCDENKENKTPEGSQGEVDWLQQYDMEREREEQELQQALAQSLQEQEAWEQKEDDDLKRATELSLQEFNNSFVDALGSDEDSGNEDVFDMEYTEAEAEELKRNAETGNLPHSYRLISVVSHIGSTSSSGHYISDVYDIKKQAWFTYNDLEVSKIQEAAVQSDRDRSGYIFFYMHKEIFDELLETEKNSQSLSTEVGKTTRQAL
Method: as §1

[3] = target: T2, USP36-Flag (human USP36 with C-terminal Flag epitope) (human, UniProt Q9P275 1-1123, limits assumed)
T2 sequence (looked up): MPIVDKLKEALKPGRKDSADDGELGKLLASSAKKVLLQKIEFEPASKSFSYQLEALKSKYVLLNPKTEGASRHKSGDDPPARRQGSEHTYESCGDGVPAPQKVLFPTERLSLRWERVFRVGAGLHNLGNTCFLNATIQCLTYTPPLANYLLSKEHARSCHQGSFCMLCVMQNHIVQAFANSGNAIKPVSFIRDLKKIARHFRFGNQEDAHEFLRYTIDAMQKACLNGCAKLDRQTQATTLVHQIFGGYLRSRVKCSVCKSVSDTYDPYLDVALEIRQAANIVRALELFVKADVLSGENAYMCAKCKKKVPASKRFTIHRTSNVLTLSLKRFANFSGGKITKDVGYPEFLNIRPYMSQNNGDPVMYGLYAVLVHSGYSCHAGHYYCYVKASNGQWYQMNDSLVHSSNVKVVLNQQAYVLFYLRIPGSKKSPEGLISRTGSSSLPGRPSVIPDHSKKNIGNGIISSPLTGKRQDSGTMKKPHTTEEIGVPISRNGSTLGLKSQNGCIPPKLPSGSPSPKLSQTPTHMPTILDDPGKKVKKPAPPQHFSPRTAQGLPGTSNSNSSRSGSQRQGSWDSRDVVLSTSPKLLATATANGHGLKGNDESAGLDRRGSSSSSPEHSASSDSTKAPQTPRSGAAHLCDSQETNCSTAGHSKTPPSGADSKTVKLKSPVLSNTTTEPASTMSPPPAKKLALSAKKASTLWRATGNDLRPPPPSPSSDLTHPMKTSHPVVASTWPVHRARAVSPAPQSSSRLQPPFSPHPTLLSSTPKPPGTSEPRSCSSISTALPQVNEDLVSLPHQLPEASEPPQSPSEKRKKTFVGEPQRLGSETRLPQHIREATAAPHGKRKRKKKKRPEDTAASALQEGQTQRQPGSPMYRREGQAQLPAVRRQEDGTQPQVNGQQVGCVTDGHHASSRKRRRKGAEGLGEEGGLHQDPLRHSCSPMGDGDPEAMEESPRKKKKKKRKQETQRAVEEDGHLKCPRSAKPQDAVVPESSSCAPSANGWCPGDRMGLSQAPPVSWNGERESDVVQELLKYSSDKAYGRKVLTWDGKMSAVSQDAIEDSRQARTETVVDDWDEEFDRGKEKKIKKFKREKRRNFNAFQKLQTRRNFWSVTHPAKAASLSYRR
Method: as §1

Measured: binding result

Sequence of SENP3-Flag (human SENP3 with C-terminal Flag epitope) (Q9H4L4 whole entry): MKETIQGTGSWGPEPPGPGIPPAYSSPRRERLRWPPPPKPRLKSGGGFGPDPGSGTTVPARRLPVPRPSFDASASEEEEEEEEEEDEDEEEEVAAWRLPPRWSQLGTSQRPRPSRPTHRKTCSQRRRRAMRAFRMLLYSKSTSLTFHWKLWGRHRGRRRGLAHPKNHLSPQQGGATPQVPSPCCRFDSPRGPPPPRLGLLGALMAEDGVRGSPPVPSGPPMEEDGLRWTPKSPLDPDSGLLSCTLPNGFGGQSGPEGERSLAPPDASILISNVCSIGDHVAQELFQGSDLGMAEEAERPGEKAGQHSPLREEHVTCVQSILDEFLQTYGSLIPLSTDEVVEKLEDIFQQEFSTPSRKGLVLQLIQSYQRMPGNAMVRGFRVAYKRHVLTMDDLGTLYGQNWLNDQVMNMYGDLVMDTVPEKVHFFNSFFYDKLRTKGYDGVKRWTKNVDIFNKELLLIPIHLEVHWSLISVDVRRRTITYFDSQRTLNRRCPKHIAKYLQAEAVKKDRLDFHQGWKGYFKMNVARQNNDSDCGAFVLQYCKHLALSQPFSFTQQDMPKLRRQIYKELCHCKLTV

B1: ID2 (co-transfected / co-expressed in 293T cells) (other)
chain: MKAFSPVRSVRKNSLSDHSLGISRSKTPVDDPMSLLYNMNDCYSKLKELVPSIPQNKKVSKMEILQHVIDYILDLQIALDSHPTIVSLHHQRPGQNQASRTPLTTLNTDISILSLQASEFPSELMSNDSKALCG
notes: ID2 was amplified from Jurkat-derived cDNA; The methods describe only a C-terminal Flag version in pRK2001
no binding: [1] | [2] | [3]
